Assay: label from the status in PepcDB records

Row | Sequence | protein production
1 | MSQIEAVFFDCDGTLVDSEVICSRAYVTMFRQFDITLELTEVFRRFKGVKLYEIIDTISKEHGVALAKAELEPVYRAEVARLFDTELEAIAGANTLLESIKTPMCVVSNGPVSKMQHSLGKLGMLHHFPDLLFSGYDIQRWKPDPALMLHAANAMKVNVEKCILVDDSSAGAQSGIAAGMEVFYFCADPHNKPIDHPNVTTFTDLAQLPGLWKAR | failed
2 | MKLIAVLNLLNQLSNKNSLEEYLNGVIDFLSGWTGCENIGIRVLREAGLAPYVVHRGFDKDFIASESCISVEGDECVCLRVLKQQFKSEDQDHISAAGTYYAPNFYRYVEELREDQLLNFRGLCAHKQFKSLAVIPLLHQGKVVGAIHIADIKDGVFSEEDIHFIETIRPLVAEAIYRHNLEKALEHHHHHH | failed
3 | MNKPTLGIDLDTTLNTLDREWVKRYNEIYKDKLLPSDIKGWDIENYVKPECGKKIYDILKEPHFFRNLGVQPFAETALEELTSIFNIYIVSATHYKVCEDKGNWIKEKFPFISYQNIIFCHNKGLVHLDILIDDNPLNLENFKGNKILFDAHHNKSENRFVRARDWYEAKALCESLKDFL | failed
4 | MPCTAKVLELRPSVDALLRQHVRTLQGTGRGQCSKSFVPAIRQELVMIALFQGLGLLLQDNALHRLPFDEQVAHWRDKTDAQLDEELSLLKVAKKQWVIASIIGWQAISLILLGVITHQLWQNDYHLTFSRVVIIFTSWASILFVMWYIADLFDHSAGFERWLRAFNSRARVTPDADSVECVADALDMTRRYPEVLRYKQEVTSKRELRHEDIVNMREMGRLRRYTELLRDLDRFDGAPRLVANA | failed
5 | MNLLRHAVAGLCLVASAGCSGQDVMVRKQSEMETRLEHLHQASTTSGVRLAELSAEVTALRERLAAQGAELEQIKAGQRELQANITERLAQVAPAAGTPSRIEVVSRDGAPREKDGPPDAYLKAFGLYSANNFAGAVEAFQAFLAEHPDSEYAGNALYWIGECHYSRSDLPRALDAFRLVAERYPASTKVPDALLKSGYTLYAMKEPERAREILESLAAKYPRSPAAAKARERLAVATPKKQ | failed
6 | TIDSNFQNKVDEILQRNYSQIVKTIGPYSENAYVVAMNPQTGAILAMSGFHHDLATGEVTPNPLAPILNSEVPGSVVKAGTLTAGYETGVIKGNDVLTDEAILLAGSNPKASWWNASGGTTMQLTAEQALEYSSNAYMMKLVFKMMGVNYYPNMIFPYEVGDDTVFKELRKAFAEYGMGTKTGIDIPGETTGIQNKDFKDSSSAPQGGNLLDLSFGQYDTYSALQLAQYVSTVANNGIRVQPHVVEGIYGNDENGALGKILKEIEPKVLNKVNISEDQIGILQQGFYNVVNGTSPFTTARGLKSDKFSIAAKTGTAETQATDANGVNHTTVNSNLVAYAPYENPEIAISVVLPHLNDEASKPNQTIAKEVLEAYMEMYKK | failed
7 | MSTTMKRQGCSSDSGDLRRQPSRLLKRPPALKIVPATPAANNWNTAIPLLSPLALSPESSPVDQPPVEKNQSTAVAVEKTPVFKKWQHPAAPFYYESSTFVPPFVPV | failed
8 | MNQQPIKIAVFGLGGVGGYYGAMLALRAAATDGLLEVSWIARGAHLEAIRAAGGLRVVTPSRDFLARPTCVTDNPAEVGTVDYILFCTKDYDMERGVAEIRPMIGQNTKILPLLNGADIAERMRTYLPDTVVWKGCVYISARKSAPGLITLEADRELFYFGSGLPEQTDDEVRLAELLTAAGIRAYNPTDIDWYIMKKFMMISVTATATAYFDKPIGSILTEHEPELLSLLEEVAELFRAKYGQVPDDVVQQLLDKQRKMPPESTSSMHSDFLQGGSTEVETLTGYVVREAEALRVDLPMYKRMYRELVSRTAN | not failed
9 | MGHHHHHHSHSWDFGAFQSSSATDSSMEEIFQHLMAYHQEASKRISSHIPLIIQFFMLQTYGQQLQKAMLQLLQDKDTYSWLLKERSDTSDKRKFLKERLARLTQARRRLAQFPG | failed
10 | YTVRLETEHAKEILSSDSPWASLEMFSFYGNYLKLVRTEYEGLRLSSGDTVFFLGSGPLPLTLIVFFRLYGVKSTGIEKDSFRANLSKKVLEKLGLSSVIKIVNGNHFSLSRKDLSLSPDTGVKALMIAAQAEPKKEIFEHLLEVMPIGGRISC | failed
11 | FLCMIPMFLYDFSSDKVIALIARILYFSDYFIVILFLIFIINSTKYSPFVLENVKRFKVMGCCLLINTIIECINGYNLNTNNIRIFGTDSGGISPLMVISFIFALMCFVIAETFDKAIKIKEDNDLTI | failed
12 | MTNQHRASFPSPTRGEGRTRTALATLFLSILFLILPALAARAMDIQQVTSPKGITAWLVEDYSVPIVAVRFVFGGGSTQDPVGKEGLTNLMTGLFDEGAGPLDSEAFQVRLDDAGAEMSFEETRDGVYGSMRMLAEQRDEAFDLLRLAVNEPRFDQAPIDRIRAQILSGIIANENDPDTVAQHRWARAVYGDHPYSRSDQGTRQSIAAITKDDLKALHKAVFARGGLHVAVVGAIDAETLKKKLDMVFGDLPQNQALTPVADVEPKLAQRVEVNYDLPQTSLQLAWPGVKRKSADFFPAVLMNEILGGGTFTSRLFAEVREKRGLAYSVNSSLVNQDHADALIVTTGTRSDRAAETLGIVRDVARQLAEEGPTEAELAATKKYLIGAYAITNLDSSSSIAATLVELQLDDLGIDYMQRRAGYINAVTLDQVKAAAKKLLTAEPTIMVVGPPLAGAGKG | failed
13 | MFLLEPKQSSNPMQPQETAARYDTIAQWWQTQHQDSQYGLRQLERAIQFVDPTHQPKLALEVGCGSSGRFIECLSNRGFQVEGLDISTAMIDLAQQLHPEVTFYRADICEWIPSKSYSLIVAWDSTFHLPLDQQAPVHRKLCAALEDQGILMFTCGGGDQAGEIAGVFQGQDFEYSTLGIDAFLKLLSDCHCTCLHLEYDQYPERHVYVIAKKVGAAIH | failed
14 | MNTLECLAVAVALAMDAFAVAIATGIRLREVSPRQTFRLAFHFGLFQALMPVAGWTLGLTVRGYIEQWDHWLAFGLLLYIGVRMMREAFEETEENDDRCDPTRGLTLIMLAVATSIDALAVGLSLSVLGIDIVTPAIVIGVVCLLFTATGLHLGRMLSRAESLGRRAALAGGVVLIGIGLRILYEHGVFDTAATLARSVLG | failed
15 | MRSQPTVSVIVPARNEAGNIAAAVERLPELGAETELIFVEGHSRDQTWETIEQTVAEYQGPLKLLACRQTGKGKADAVRLGFDKASGDILMILDADLTVQPEDLGHFYRAIASGRGEFINGSRLVYPRSRLAMPGLNTLANRTFALIFSFLLGQPLKDTLCGTKVLWKTDYDRVAAGRKYFGDFDPFGDFDLLFGAAKLGLEIVEVPVRYQERSYGSSNIAHVREGLILARMCLYAAGKLKFPLEHHHHHH | failed
16 | MSINSNSVFNNSGRVSAAGIASVVGLAVLSAVAVTGGAVKVLVISWVAFAAMALGAWLGARADETNPYRLVWGYGLASGAMVTSAAMFLVPQAMGLGGQAGAARIGGVGIAAGLVTGYGTHTIGHRLTHIETSFDMTTIAIAAHALSAGLVIGLVYASMPDLGILLGLAIVSHKGPAGYAAARRLGRSDKSATALLLPAAGVGLTAIPSALLPVPESALLNAVIFGFAAGIFLHVAMDFLPNCEAGSEIDEVCELHDHSHDLLDELRTHAVGSTVVGAAVIVLAWVAI | failed
17 | MLIGPYTHDAFMEEARKFHGYPAPGLIIGGYMVEMARRALPEGILFDAISETGQCLPDAVQMLTPCTIGNGWLRIRNFGLYALSLFDKHTGVGVRVHIDSQKLERFPEIKAWFLKLKPKREQDTERLQQEIREAAFDLLTLRPVTIRPDALGHGGKGGTIVACPLCGEYHPSAFGGICRSCQGESPYEVGPGLSFPGQPELRAVPVEEAVGKHALHDMTRIVPGESKGAEFVAGQELGAGDVCRLQMMGRNRVYVREETGDMQGWVHEDEAARAFGELMPGDGIEPEGPVREGKINFRATRDGVLVVDTRRLEQFNLVPDVMCATRHTHGVVLAGTRVAGTRAIPLYLSTLNLAKATTLLEGGPLFSVAPMRKAKVGVLVTGTEVFRGIIEDKFAPIITQKANQLGCDMAGTVIAPDDAPLITRGVHDLLAAGADLIVTTAGLSVDPDDMTRKGLLDAGLTEMLHGVPVLPGTMTLIGRIGGAQVIGVPACALFFKTTALDLLLPRLLAGLSVTRLDLARMGHGGLCMECRSCSFPKCPFGRG | failed
18 | SLSLIRKKGFYKQDVNKTAWELPKTYVSPTHVGSGAYGSVCSAIDKRSGEKVAIKKLSRPFQSEIFAKRAYRELLLLKHMQHENVIGLLDVFTPASSLRNFYDFYLVMPFMQTDLQKIMGLKFSEEKIQYLVYQMLKGLKYIHSAGVVHRDLKPGNLAVNEDCELKILDFGLARHADAEMTGYVVTRWYRAPEVILSWMHYNQTVDIWSVGCIMAEMLTGKTLFKGKDYLDQLTQILKVTGVPGTEFVQKLNDKAAKSYIQSLPQTPRKDFTQLFPRASPQAADLLEKMLELDVDKRLTAAQALTHPFFEPFRDPEEETEAQQPFDDSLEHEKLTVDEWKQHIYKEIVNFSPI | not failed
19 | MVGISFVFDKISNGISSYKSIKGIEQAHKSKKIASDLREYGYKLLDCRKLEAAKDAFEEALRFDPTNPEIQMGLFKSAVFQPILTKNPTYYDAEIALKKIETILKKNPNDRHAYYFMGEIYRDSDPKKASNYYKKVISLDPKSYLTGLAYNSLAYIAATEKDNDLAFYYMKKAANLCEMNPTVLNNLSYQHLIRGQYEITIEKLTRLIKHDPYKIIVFWNIINSLRMIGKFQEAYIYNHMLIECIEDETTSYHAANLGAFFFQTDPSGDGVFFKEISGKKFYSYCSMALTCYVLDLTEEANMYLEKAQKLDCFSKASAIKFLYYNIECIQKNNVKLIYKLDDIKERLIKLDLFTNVSITVARNETQYINMAKV | failed
20 | LKKAGGALIAGVLKNGPADDAGIKPGDVLVAVNGKPIFNSSEMLNMVASLAPGKSATLTILRHGGQQDIQVRIGKRPS | failed
21 | MKLPPGFSISVWANVPDARTMTLGDKGTVFVGSKSAGNVYAITENAGKRQIRIIASKLKMPNGVAFHDGALYVSSVNRILRFDNIENTLDQPLPPRIITADYPKETYHGWRFIAFGPDGWLYVPVGSSCNVCETDLEHYALISRIRPDGSNYEVFAKGVRNTEGFDWHPVTKALWFTDISREWMGDNLPPDELNHASNQGLDFGFPYCHGKEVSDPKLGAKRDCNKFIPPAVELDPHVAPMGMRFYTGTMFPAEYHNGIFIAEHGSWNRSTKIGYRLEWVQLEVNEVARKEIFAEGWLQENEAWGRPVDVLVMPDGALLVSDDMAGVVYRISYDQPLEHHHHHH | not failed
22 | MSIIDLTKLEQKVATMWDSILTNSPFIHEVLDGKATKALYAIYMTETYHYTKHNAKNQALVGIMGKDLPGKYLSFCFHHAHEEAGHELMALSDIASIGFDREDVLSSKPLPATETLIAYLYWISATGNPVQRLGYSYWAENVYGYIDPVLKAIQSTLDLTPQSMKFFIAHSKIDAKHAEEVNEMLHEVCKTQEDVDSVVAVMENSLVLTARILDDVWKEYQLFQSGASDRYAFLRDNA | not failed
23 | MPVRRPCPGRPYRDLSSAPGTAVRAEPTTPLPPFALRTCACQTPGRDMSVNALTAVPSARSIPATSAFRGRIGCDARSGHYPVPGRYRLHLSPSCPHCLKIAVAHSLLGLEDACPVTLLPAVPDGPGGEHSALRPLYEASAHRYAGAAVAPVLSDDWSGRIVSTHAPDIMRDLARRFGGERPPLYPKGMEAEIEAVGHLCEQGINATAQRAGRADADDAERDSALGSLLRTLRSLEGRLARQDYLLGDRLTAADIELWVSLVQLDTVHRWHLDASAVHRVADHPALWAYARRLAGDPAFGAHLDLDGIARRHHAHCRGLEAAGAAVQIVEWAAHAPDRTASRQG | failed
